Drawing on doi:10.64898/2025.12.30.697032, this text covers percent of mtSSU particles accommodating mtIF3 for one molecule.

In the assay the target is cauliflower mitoribosome small subunit (cauliflower (B. oleracea)). The assay can be described thus: cryo-EM structure; in vitro reconstitution (first reaction): 2.7 ug/uL mtSSU, 500 nM rps3 mRNA (51 nt), 500 nM mtIF3, 2 min at 37 °C, then 10 min on ice; Initiation buffer (20 mM HEPES-KOH pH 7.6, 75 mM KCl, 40 mM MgCl2); gives mtPIC-1 and mtPIC-2.

B1: Arabidopsis mitochondrial initiation factor 3 (natural protein)
chain: MAIWRIINRSYLKYASNQLTRNYYTQVCLASSTHVVKQTTKLSSFDIPNSDICTRPSNIFQNLRFLATSAQTRKKEAEVDSDGPRLNEKITGDYVRLVSEEGHCVVSLREALRRAKELQCDLVEVQRDAKPPVCKIVKYSLELYKKAKVGKERAKAKRAEAIRPDIKEIRFTPKIEAKDLKFKSDQALKLMESGYRVKCLAVPDKDKHKELEPEKLLELLFRFTCFIGDALVESWPEADRKGAVVIVRHAKFGPPKKGGVKLMKDIDIKSARVKEESPKPDSSKAGVATVDDQEDIEKSEPRFSVEQAQPVKFQNAYAKREPSSEFSGGRDASRFEPQSPNQHVNPQRPRFSNQAPNQQPTGRFDPQSPNQPPSAPRPQFPNQQPTGRFDPQFPSQPPRPQFPNQAPNQQSTGRFNPQFPNQRPSPPQSRFPDQAPNQQPSGPSPNRHPDRQGPPPRFQNQAPNQQPTGRFEPQPPNPPRAPPRPQTRLPNETSNEQPTAPGRSSGPASGYGIFSTPKTK
The molecule B1 came in with a percent of mtSSU particles accommodating mtIF3 of 70%.
